First the molecules themselves.
B1: Double-stranded RNA-specific adenosine deaminase, residues 296 to 358; numbered along this chain, P55265 (parent)
chain: MAEIKEKICDYLFNVSDSSALNLAKNIGLTKARDINAVLIDMERQGDVYRQGTTPPIWHLTDK

± gives the uncertainty stated by the source.

The variants in this series derive from B1. Nature of the series: abundance fitness (aPCA) (normalised: wild type 0, dead -1); higher = more abundant; growth selection in yeast, the domain comes from the species named. To be noted: Homo sapiens.
As to MAEIKRKICDYLFNVSDSSALNLAKNIGLTKARDINAVLIDMERQGDVYRQGTTPPIWHLTDK [E6R], the abundance fitness is -0.338 ± 0.056.

Regarding MAEIKPKICDYLFNVSDSSALNLAKNIGLTKARDINAVLIDMERQGDVYRQGTTPPIWHLTDK [E6P], the abundance fitness was -0.831 ± 0.13.

For the variant MAEIKNKICDYLFNVSDSSALNLAKNIGLTKARDINAVLIDMERQGDVYRQGTTPPIWHLTDK [E6N], the abundance fitness was -0.428 ± 0.12.

For MAEIKHKICDYLFNVSDSSALNLAKNIGLTKARDINAVLIDMERQGDVYRQGTTPPIWHLTDK [E6H], the abundance fitness was -0.557 ± 0.1.

For MAEIKSKICDYLFNVSDSSALNLAKNIGLTKARDINAVLIDMERQGDVYRQGTTPPIWHLTDK [E6S], the abundance fitness is -0.39 ± 0.062.

On to MAEIKMKICDYLFNVSDSSALNLAKNIGLTKARDINAVLIDMERQGDVYRQGTTPPIWHLTDK [E6M], for which the abundance fitness is -0.25 ± 0.1.

For MAEIKQKICDYLFNVSDSSALNLAKNIGLTKARDINAVLIDMERQGDVYRQGTTPPIWHLTDK [E6Q], the abundance fitness was -0.03 ± 0.087.

For MAEIKDKICDYLFNVSDSSALNLAKNIGLTKARDINAVLIDMERQGDVYRQGTTPPIWHLTDK [E6D], the abundance fitness is -0.517 ± 0.15.

In the case of MAEIKYKICDYLFNVSDSSALNLAKNIGLTKARDINAVLIDMERQGDVYRQGTTPPIWHLTDK [E6Y], the abundance fitness was -0.832 ± 0.26.

Regarding MAEIKCKICDYLFNVSDSSALNLAKNIGLTKARDINAVLIDMERQGDVYRQGTTPPIWHLTDK [E6C], the abundance fitness is -0.654 ± 0.21.

Turning to MAEIKFKICDYLFNVSDSSALNLAKNIGLTKARDINAVLIDMERQGDVYRQGTTPPIWHLTDK [E6F], the abundance fitness was -0.839 ± 0.27.

As for MAEIKVKICDYLFNVSDSSALNLAKNIGLTKARDINAVLIDMERQGDVYRQGTTPPIWHLTDK [E6V], the abundance fitness was -0.589 ± 0.069.

With MAEIKGKICDYLFNVSDSSALNLAKNIGLTKARDINAVLIDMERQGDVYRQGTTPPIWHLTDK [E6G], the abundance fitness was -0.246 ± 0.056.

Regarding MAEIKKKICDYLFNVSDSSALNLAKNIGLTKARDINAVLIDMERQGDVYRQGTTPPIWHLTDK [E6K], the abundance fitness stood at 0.056 ± 0.23.

Consider MAEIKAKICDYLFNVSDSSALNLAKNIGLTKARDINAVLIDMERQGDVYRQGTTPPIWHLTDK [E6A], for which the abundance fitness was -0.148 ± 0.055.

In the case of MAEIKLKICDYLFNVSDSSALNLAKNIGLTKARDINAVLIDMERQGDVYRQGTTPPIWHLTDK [E6L], the abundance fitness is -0.57 ± 0.068.

As for MAEIKWKICDYLFNVSDSSALNLAKNIGLTKARDINAVLIDMERQGDVYRQGTTPPIWHLTDK [E6W], the abundance fitness is -0.793 ± 0.088.

In the case of MAEIKIKICDYLFNVSDSSALNLAKNIGLTKARDINAVLIDMERQGDVYRQGTTPPIWHLTDK [E6I], the abundance fitness is -0.886 ± 0.15.

Consider MAEIKEKTCDYLFNVSDSSALNLAKNIGLTKARDINAVLIDMERQGDVYRQGTTPPIWHLTDK [I8T], for which the abundance fitness was -0.713 ± 0.14.

Consider MAEIKEKECDYLFNVSDSSALNLAKNIGLTKARDINAVLIDMERQGDVYRQGTTPPIWHLTDK [I8E], for which the abundance fitness is -0.374 ± 0.074.

On to MAEIKEKFCDYLFNVSDSSALNLAKNIGLTKARDINAVLIDMERQGDVYRQGTTPPIWHLTDK [I8F], for which the abundance fitness was -0.506 ± 0.19.

With MAEIKEKACDYLFNVSDSSALNLAKNIGLTKARDINAVLIDMERQGDVYRQGTTPPIWHLTDK [I8A], the abundance fitness was -0.564 ± 0.13.

Consider MAEIKEKGCDYLFNVSDSSALNLAKNIGLTKARDINAVLIDMERQGDVYRQGTTPPIWHLTDK [I8G], for which the abundance fitness was -0.471 ± 0.096.

For MAEIKEKHCDYLFNVSDSSALNLAKNIGLTKARDINAVLIDMERQGDVYRQGTTPPIWHLTDK [I8H], the abundance fitness was -0.766 ± 0.2.

MAEIKEKRCDYLFNVSDSSALNLAKNIGLTKARDINAVLIDMERQGDVYRQGTTPPIWHLTDK [I8R]: the abundance fitness is -0.374 ± 0.11.

MAEIKEKSCDYLFNVSDSSALNLAKNIGLTKARDINAVLIDMERQGDVYRQGTTPPIWHLTDK [I8S]: the abundance fitness was -0.304 ± 0.15.

For MAEIKEKNCDYLFNVSDSSALNLAKNIGLTKARDINAVLIDMERQGDVYRQGTTPPIWHLTDK [I8N], the abundance fitness was -0.543 ± 0.4.

With MAEIKEKVCDYLFNVSDSSALNLAKNIGLTKARDINAVLIDMERQGDVYRQGTTPPIWHLTDK [I8V], the abundance fitness was -0.649 ± 0.29.

Consider MAEIKEKDCDYLFNVSDSSALNLAKNIGLTKARDINAVLIDMERQGDVYRQGTTPPIWHLTDK [I8D], for which the abundance fitness turned out to be 0.302 ± 0.3.

Consider MAEIKEKQCDYLFNVSDSSALNLAKNIGLTKARDINAVLIDMERQGDVYRQGTTPPIWHLTDK [I8Q], for which the abundance fitness is -0.137 ± 0.11.

With MAEIKEKLCDYLFNVSDSSALNLAKNIGLTKARDINAVLIDMERQGDVYRQGTTPPIWHLTDK [I8L], the abundance fitness is -0.903 ± 0.17.

For the variant MAEIKEKKCDYLFNVSDSSALNLAKNIGLTKARDINAVLIDMERQGDVYRQGTTPPIWHLTDK [I8K], the abundance fitness is -0.568 ± 0.12.

Turning to MAEIKEKWCDYLFNVSDSSALNLAKNIGLTKARDINAVLIDMERQGDVYRQGTTPPIWHLTDK [I8W], the abundance fitness is -1.3 ± 0.38.

As for MAEIKEKPCDYLFNVSDSSALNLAKNIGLTKARDINAVLIDMERQGDVYRQGTTPPIWHLTDK [I8P], the abundance fitness is -0.455 ± 0.18.

As for MAEIKEIICDYLFNVSDSSALNLAKNIGLTKARDINAVLIDMERQGDVYRQGTTPPIWHLTDK [K7I], the abundance fitness was -0.779 ± 0.11.

MAEIKESICDYLFNVSDSSALNLAKNIGLTKARDINAVLIDMERQGDVYRQGTTPPIWHLTDK [K7S]: the abundance fitness was -0.467 ± 0.067.

As for MAEIKECICDYLFNVSDSSALNLAKNIGLTKARDINAVLIDMERQGDVYRQGTTPPIWHLTDK [K7C], the abundance fitness was -1.01 ± 0.12.

Regarding MAEIKEAICDYLFNVSDSSALNLAKNIGLTKARDINAVLIDMERQGDVYRQGTTPPIWHLTDK [K7A], the abundance fitness was -0.348 ± 0.066.

For the variant MAEIKEGICDYLFNVSDSSALNLAKNIGLTKARDINAVLIDMERQGDVYRQGTTPPIWHLTDK [K7G], the abundance fitness was -0.775 ± 0.086.

MAEIKEFICDYLFNVSDSSALNLAKNIGLTKARDINAVLIDMERQGDVYRQGTTPPIWHLTDK [K7F]: the abundance fitness is -0.543 ± 0.088.

With MAEIKENICDYLFNVSDSSALNLAKNIGLTKARDINAVLIDMERQGDVYRQGTTPPIWHLTDK [K7N], the abundance fitness was -0.534 ± 0.08.

With MAEIKEQICDYLFNVSDSSALNLAKNIGLTKARDINAVLIDMERQGDVYRQGTTPPIWHLTDK [K7Q], the abundance fitness is -0.938 ± 0.39.

For the origin of these results see the Human Domainome abundance scans (Beltran et al. 2025).
